Reference: the domain aggregation screens of Martell et al. (2025)

Assay: soluble fraction after stress (log2 fold change); higher = more stays soluble; pooled small domains, quantitative proteomics
Details: stress: pH 4
In short: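 After pH 4 stress, pooled custom libraries of small protein domains were quantified with high-throughput quantitative proteomics. Aggregation propensity is taken from the fold change in each domain's soluble amount following the acid stress. The scale is log2, where higher values mean more stayed soluble.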

Row | Sequence | soluble fraction (log2)
1 | HMDIYLDEVNRKILHLLSQGIKTRSLREYINLSMSAIEKRKKHMKELFLVEDGKDETLLNEARNKGF | -0.64
2 | HMDIYLTAFKTTSNQVTLNGIARSDLIISEFMRDIRDAKLFGEPVLQVIQNKNLNNVQARVFELVVPL | -0.399
3 | HMDKATMRWEQIEKFLETHPYIMNADVRALFNVSAATANRILATLTTEGKLVKYREGGHWAYKY | -0.217
4 | HMDKELILLWDRVKSKVWQMDIQDSQVANWFQRNYHLTVRLRDFDPPVPPDKFTAEQLASFIKDIERHT | -0.000327
5 | HMDKGMQTMIDNLHKNTGKTLEEWIALVNRANFAKHGEVISFLKEKHGLTHGYANLVAHRLK | -0.361
6 | HMDKINQEAIEDEAGLWLAKIDGRQLAQEEVRELIAWMRRSDFHREYLITLARQWDGMAALNKLATLFP | -1.4
7 | HMDKLFNRQTLGGVELTQKQIEDLNAGKAIFVEGMQRKDGEVFSSYVKLDEATGRPSYTRYNPDSP | 0.0109
8 | HMDKLSYALGLSMGHNFLGSGIKSLNVEDFAKGVEAVYKQEKPEISFDEAKKIINEFFSNLQDEIAE | -1.33
9 | HMDKNLQYADTPKGKLREYIKNLPNGSTVNRQKLAEEFGIKKQSMGTVTEVFQEFPDKNFKFVNP | -0.157
10 | HMDKPVIEDVSFDDLAYMVGERVIIRTHLRSTRDGELKSFNRAGILVSLRNRPGMELEIPRSTVASAQVVW | -0.744
11 | HMDKQEKIHKKKIIILEALKRLLQNDVYSRITVQAVADEAGFSKGGLLHYFPTKEEMYIEFMEY | 0.092
12 | HMDKRYYYRILGLVGEPTRDQIEAAYETRIAKLRSSDYGDDPLYARRKISEVTMAYKVLTGS | 0.139
13 | HMDKSFLQSLHLIALGIVKNQMDPWELVNGWVEYYLKNKDKYIDHPNLKAVAVLKMKGLFIDHFRKS | -2.21
14 | HMDKSHYEELGVSRTATHAEIRRAYRHLMRTLHPDSNDGRVDAVRITKVNEAWNVLSQSSSRNAYDKSQV | -0.0249
15 | HMDKTTIKNEQKKQILIFAEMNLFFKAKDVAELLGLQASRARYLLQELVKDGKIQGIGNNKGRKYQLI | -0.591
16 | HMDKVEQLMQNPVIQEKMSEGDRELLRNASLVVLGRLEDDGSIIQRFVELFGEEAYERLKSELM | -0.865

Row | Sequence | soluble fraction (log2)
17 | HMDLDIGSVLQASRGEKKISLRQLAERTGLTASMLSQIERNLVNPSINTLKVIAAALEIPMYKFFMG | -0.583
18 | HMDLEMLEVEDTIKDLLSQHQKINAIKYYRNYMSEQLNVDMGLRQAKDTIDAIGRGATVDLSVGY | -0.783
19 | HMDLIEVLAQDTIKKIYNTYVAYKNKVDVFYVAFSGGKDSIVTLDLVQRTLPHNEFKVLFGDTGM | -0.48
20 | HMDLIFQKGDLVFSTEHNQRGIFYEYLEQGQAKISIEKQFFVVAARRLQLLTKREVLYPAGYDLDQLFV | -1.05
21 | HMDLKENQHILQISNKGVQMGNVLKDLIIQTLNITNGNQIKAAKLLAISRAKLRYRIEQLGINISGKNI | 0.0187
22 | HMDLKHNQITMRELLRNKQAYLLLYKEFPMFMTPAILQNIRPLTLQQIIQMVRPYISRPKLNMLLEQLENI | 0.22
23 | HMDLMQRVIIVRPVMQGDYLTRAHLGLQTLSRNGGGGFTDIDDLVGRRAKKSLRAGLVVHNRHL | 0.124
24 | HMDLPAEFSKPELETLFKRGKQSGELSLTEVRDALEAAQLPNKKTQTKVLKVLSDNAIHVLMDG | 0.0785
25 | HMDLPDFTSRERDILARVVQGDSNERIAASLGVSVSTVKTHIGNILRKTGQTNRVRLIVWATRHL | -0.37
26 | HMDLPDYYFRVRENGAVVFRVGTENRQRRIEMVEIATVNVKNGNIKPHGEVDLTKADRLAIGEWLAARQAQ | -0.27
27 | HMDLPRQSQYQALVVSYARRAGIDEAEEDLLAAFEVWRMRHNHDLAGGRTARDFILAYLPQYQRHKE | -0.59
28 | HMDLQNIQNQLNTEFAKSDTRIIFWFDDKGEYEDEVSELQLGDVKLHILDGLNWFYSKYLLNEA | -0.467
29 | HMDLRAPKPIKEMGEEYIKLYQYLRKGESENIVMSKMNISLDDYDYMRSEIEDKLSLYNMLDLLRKP | 0.0296
30 | HMDLRVKRTNKMIMEAFIHLVEQKGYDNITVQEIADEAMINRATFYAHFKDKQDLYDHIFKQAI | -1.33
31 | HMDLSPEQAELAAIRGELGIKIDDYALALNIPRDRLTSYLYGRANVPAEVLISARELRYASSA | -0.128
